Assays:
[1] = biological target: T1, rHuman Notch-1/Fc Chimera, CF (R&D Systems Cat#3647-TK) (human, UniProt P46531 19-526); assay: MSD ECL multi-spot assay, antigen spotted on plate, Fab 0.93 uM; blank spot 859
T1 construct: Bought protein; Fc part of the bought chimera not given

[2] = biological target: T2, rHuman IGF-1 sR (IGF-1 sR), CF (R&D Systems Cat#391-GR) (human, UniProt P08069 31-932); assay: as above
T2 construct: Bought soluble receptor; also called insulin-like growth factor-1 soluble receptor; IGF-R1

[3] = biological target: T3, rHuman P-Cadherin/Fc Chimera, CF (R&D Systems Cat#861-PC) (human, UniProt P22223 108-654); assay: as above
T3 construct: Bought protein; also called CDH3; Fc part of the bought chimera not given

[4] = biological target: T4, rHuman ErbB2/Fc Chimera, CF (R&D Systems Cat#1129-ER) (human, UniProt P04626 23-652); assay: as above
T4 construct: Bought protein; also called HER2/neu; human epidermal growth factor 2 receptor; Fc part of the bought chimera not given

[5] = biological target: T5, rHuman CD44/Fc Chimera, CF (R&D Systems Cat#3660-CD) (human, UniProt P16070 21-220); assay: as above
T5 construct: Bought protein; Fc part of the bought chimera not given

[6] = biological target: T6, rHuman Erythropoietin R/Fc Chimera, CF (R&D Systems Cat#963-ER) (human, UniProt P19235 25-250); assay: as above
T6 construct: Bought protein; also called EPOR; EPO R/Fc; Fc part of the bought chimera not given
T6 sequence: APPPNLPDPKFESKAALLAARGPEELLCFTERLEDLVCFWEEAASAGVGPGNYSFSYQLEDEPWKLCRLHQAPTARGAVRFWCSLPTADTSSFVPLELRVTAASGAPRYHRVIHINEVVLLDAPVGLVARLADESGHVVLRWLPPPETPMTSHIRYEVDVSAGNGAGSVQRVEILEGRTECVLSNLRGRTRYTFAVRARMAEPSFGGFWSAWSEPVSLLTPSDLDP

[7] = biological target: T7, Recombinant Human DLL4 (R&D Systems Cat#1506-D4/CF) (human, UniProt Q9NR61 27-524); assay: as above
T7 construct: Bought protein; also called delta-like protein 4; rHuman DLL4

[8] = biological target: T8, rHuman IGF-1 sR, CF (R&D Systems Cat#391-GR) (human, UniProt P08069 31-932); assay: ECL (MSD multi-spot) titration, Fab at 0.25 uM; blank spot 6344
T8 construct: Bought soluble receptor; also called insulin-like growth factor-1 soluble receptor; IGF-R1

[9] = biological target: T9, rHuman P-Cadherin/Fc Chimera, CF (R&D Systems Cat#861-PC) (human, UniProt P22223 108-654); assay: as above
T9 construct: Bought protein; not shown: Fc of the bought chimera

[10] = biological target: T10, Recombinant Human DLL4 (R&D Systems Cat#1506-D4/CF) (human, UniProt Q9NR61 27-524); assay: as above
T10 construct: Bought protein; also called delta-like protein 4

[11] = biological target: T11, rHuman Erythropoietin R/Fc Chimera, CF (R&D Systems Cat#963-ER) (human, UniProt P19235 25-250); assay: as above
T11 construct: Bought protein; also called EPO R/Fc; EPOR; not shown: Fc of the bought chimera
T11 sequence: T6 sequence

[12] = biological target: T12, rHuman EGF R/Fc Chimera, CF (R&D Systems Cat#344-ER) (human, UniProt P00533 25-645); assay: as above
T12 construct: Bought protein; also called epidermal growth factor receptor; not shown: Fc of the bought chimera

[13] = biological target: T8, rHuman IGF-1 sR, CF (R&D Systems …); assay: ECL (MSD multi-spot) titration, Fab at 0.0625 uM; blank spot 1738
[14] = biological target: T9, rHuman P-Cadherin/Fc Chimera, CF (R&D …); assay: as above
[15] = biological target: T10, Recombinant Human DLL4 (R&D Systems …); assay: as above
[16] = biological target: T11, rHuman Erythropoietin R/Fc Chimera, CF …; assay: as above
[17] = biological target: T12, rHuman EGF R/Fc Chimera, CF (R&D …); assay: as above
[18] = biological target: T8, rHuman IGF-1 sR, CF (R&D Systems …); assay: ECL (MSD multi-spot) titration, Fab at 0.01563 uM; blank spot 906
[19] = biological target: T9, rHuman P-Cadherin/Fc Chimera, CF (R&D …); assay: as above
[20] = biological target: T10, Recombinant Human DLL4 (R&D Systems …); assay: as above
[21] = biological target: T11, rHuman Erythropoietin R/Fc Chimera, CF …; assay: as above
[22] = biological target: T12, rHuman EGF R/Fc Chimera, CF (R&D …); assay: as above
[23] = biological target: T8, rHuman IGF-1 sR, CF (R&D Systems …); assay: ECL (MSD multi-spot) titration, Fab at 0.00391 uM; blank spot 576
[24] = biological target: T9, rHuman P-Cadherin/Fc Chimera, CF (R&D …); assay: as above
[25] = biological target: T10, Recombinant Human DLL4 (R&D Systems …); assay: as above
[26] = biological target: T11, rHuman Erythropoietin R/Fc Chimera, CF …; assay: as above
[27] = biological target: T12, rHuman EGF R/Fc Chimera, CF (R&D …); assay: as above
[28] = biological target: T8, rHuman IGF-1 sR, CF (R&D Systems …); assay: ECL (MSD multi-spot) titration, Fab at 360 nM; blank spot 462
[29] = biological target: T13, rHuman HGF R/c-MET/Fc Chimera, CF (R&D Systems Cat#358-MT/CF) (human, UniProt P08581 25-932); assay: as above
T13 construct: Bought protein; also called HGF R/Fc; hepatocyte growth factor receptor; not shown: Fc of the bought chimera

[30] = biological target: T14, rHuman CD44/Fc Chimera, CF (R&D Systems Cat#3660-CD) (human, UniProt P16070 21-220); assay: as above
T14 construct: Bought protein; not shown: Fc of the bought chimera

[31] = biological target: T9, rHuman P-Cadherin/Fc Chimera, CF (R&D …); assay: as above
[32] = biological target: T11, rHuman Erythropoietin R/Fc Chimera, CF …; assay: as above
[33] = biological target: T15, rHuman ErbB2/Fc Chimera, CF (R&D Systems Cat#1129-ER) (human, UniProt P04626 23-652); assay: as above
T15 construct: Bought protein; also called HER2/neu; human epidermal growth factor 2 receptor; not shown: Fc of the bought chimera

[34] = biological target: T8, rHuman IGF-1 sR, CF (R&D Systems …); assay: ECL (MSD multi-spot) titration, Fab at 36 nM; blank spot 413
[35] = biological target: T13, rHuman HGF R/c-MET/Fc Chimera, CF (R&D …); assay: as above
[36] = biological target: T14, rHuman CD44/Fc Chimera, CF (R&D Systems …); assay: as above
[37] = biological target: T9, rHuman P-Cadherin/Fc Chimera, CF (R&D …); assay: as above
[38] = biological target: T11, rHuman Erythropoietin R/Fc Chimera, CF …; assay: as above
[39] = biological target: T15, rHuman ErbB2/Fc Chimera, CF (R&D …); assay: as above
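Further: blank spot per well as comparator with Hit at signal to blank ratio of 4 or more.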

B1: Fab VH1-46_IGHD6-13*01_IGHJ4*01 & O1_IGKJ1*01 (Fab, V domains shown)
VH: QVQLVQSGAEVKKPGASVKVSCKASGYTFTSYYMHWVRQAPGQGLEWMGIINPSGGSTSYAQKFQGRVTMTRDTSTSTVYMELSSLRSEDTAVYYCAREGYSSSWYDYFDYWGQGTLVTVSS
VL: DIVMTQTPLSLPVTPGEPASISCRSSQSLLDSDDGNTYLDWYLQKPGQSPQLLIYTLSYRASGVPDRFSGSGSGTDFTLKISRVEAEDVGVYYCMQRIEFPSWTFGQGTKVEIK
notes: Fab from E. coli; VH joined to the CH1 (Flag and His tags) of Plasmid A, VL to the kappa CL of Plasmid C
ECL signal [1]: 1920
ECL signal [2]: 1790
ECL signal [3]: 2420
ECL signal [4]: 1610
ECL signal [5]: 1450
ECL signal [6]: 4240
ECL signal [7]: 9630

B2: Fab VH1-46_IGHD2-15*01_IGHJ2*01 & L2_IGKJ1*01 (Fab, V domains shown)
VH: QVQLVQSGAEVKKPGASVKVSCKASGYTFTSYYMHWVRQAPGQGLEWMGIINPSGGSTSYAQKFQGRVTMTRDTSTSTVYMELSSLRSEDTAVYYCAREGYCSGGSCYSYWYFDLWGRGTLVTVSS
VL: not shown
notes: also called Fab No. 6
ECL signal [8]: 11000
ECL signal [9]: 25500
ECL signal [10]: 27700
ECL signal [11]: 49200
ECL signal [12]: 117000
ECL signal [13]: 3150
ECL signal [14]: 7740
ECL signal [15]: 8050
ECL signal [16]: 21100
ECL signal [17]: 94800
ECL signal [18]: 1740
ECL signal [19]: 4940
ECL signal [20]: 4020
ECL signal [21]: 11300
ECL signal [22]: 70800
ECL signal [23]: 822
ECL signal [24]: 1960
ECL signal [25]: 1550
ECL signal [26]: 5020
ECL signal [27]: 35900

B3: Fab VH4-28_IGHD7-27*01_IGHJ1*01 & L2_IGKJ1*01 (Fab, V domains shown)
VH: QVQLQESGPGLVKPSDTLSLTCAVSGYSISSSNWWGWIRQPPGKGLEWIGYIYYSGSTYYNPSLKSRVTMSVDTSKNQFSLKLSSVTAVDTAVYYCARTNWGAEYFQHWGQGTLVTVSS
VL: not shown
notes: also called Fab No. 1
ECL signal [28]: 535
ECL signal [29]: 581
ECL signal [30]: 740
ECL signal [31]: 636
ECL signal [32]: 4720
ECL signal [33]: 647
ECL signal [34]: 486
ECL signal [35]: 613
ECL signal [36]: 679
ECL signal [37]: 693
ECL signal [38]: 2980
ECL signal [39]: 600
